Data on one molecule can be found in US7193044B1, “Compounds and methods for regulating apoptosis, and methods of making and screening for compounds that regulate apoptosis” (Immunogen, Inc., priority 2000, dated 2007).

The target in one test is GST-Bcl-XL (Homo sapiens, UniProt Q07817). As to the kind of experiment: GST-Bcl-XL binding (glutathione bead pull-down) of BAD. The following applies: 35S-labeled in vitro translated full-length protein incubated with PKA and ATP. On the procedure: In order to test whether the additional and novel phosphorylation site on BAD has functional significance, the effect on BAD binding to Bcl-XL was examined. Recombinant Bcl-XL tagged with the glutathione S-transferase (“GST”) moiety (“GST-Bcl-XL”) was incubated with WCL prepared from COS-7 cells expressing the double mutant HA-BAD S112A/S136A, and the HA-BAD S112A/S136A that bound to the GST-Bcl-XL was precipitated with GST beads. […] No HA-BAD S112A/S136A was precipitated with GST beads from the WCL that were not incubated with GST-Bcl-XL (FIG. 1, lane 4).
The ability of full-length BAD and mutant BAD S155A to bind Bcl-XL was also determined (FIG. 3(c)). Full-length BAD (“WT”) and mutant BAD S155A (“S155A”) were produced by in vitro translation and labeled with ^35S-methionine therein. […] Proteins bound to the beads (“Bound”) (lower panel) and samples of the reactions collected prior to incubation with the beads (“Total”) (upper panel) were analyzed by SDS-PAGE followed by autoradiography.
For Bcl-XL binding studies, GST-Bcl-XL (1 mg/ml final concentration) was added to cell lysates derived from BAD expressing cells, and incubated with rotation for two hours at 4° C. […] The beads were then washed with RIPA buffer, the proteins were separated by SDS-PAGE and associated BAD detected by probing the blot with anti-HA antibody.

Test [1] concerns the target T1, PKA (catalytic subunit from bovine heart) (Bos taurus, UniProt P00517).
T1 construct: 11 units PKA (catalytic subunit from bovine heart, Calbiochem); purchased Calbiochem; host or cells: bovine heart
As to the kind of experiment: In vitro kinase assay, phosphorylation of BAD and BAD mutants by PKA. The test is classed as biochemical. To be noted: 35S-labeled in vitro translated protein. On the procedure:
The ability of full-length BAD and mutant BAD S155A to bind Bcl-XL was also determined (FIG. 3(c)). Full-length BAD (“WT”) and mutant BAD S155A (“S155A”) were produced by in vitro translation and labeled with ^35S-methionine therein. The labeled proteins were then incubated with PKA (“+”) in the presence of unlabeled ATP or a buffer control (“−”). Following the kinase reactions, aliquots of each sample of the four samples were incubated with either GST or GST-Bcl-XL. The protein complex were captured on glutathione-agarose beads. Proteins bound to the beads (“Bound”) (lower panel) and samples of the reactions collected prior to incubation with the beads (“Total”) (upper panel) were analyzed by SDS-PAGE followed by autoradiography.
The GST-tagged BAD and BAD mutants were then expressed individually in cells and the purified GST-tagged polypeptides incubated with purified PKA, in the presence of ^32P radiolabel. A western blot, probed with anti-BAD antibody, was performed on the incubated GST-tagged BAD and BAD mutants to determine whether PKA could phosphorylate the BAD and/or mutant BAD in vitro. The GST-tagged BAD and BAD mutants phosphorylated by PKA could be detected directly by autoradiography due to the incorporation of ^32P radiolabel when the polypeptides were phosphorylated (FIG. 4, upper panel), whereas the total amount of BAD and mutant BAD present in the in vitro reaction was detected by the anti-BAD antibody probe (FIG. 4, lower panel).
In vitro kinase assays were carried out in 30 μl volumes containing 10 mM HEPES buffer, pH 7.5, 100 mM NaCl, 12 mM MgCl2, 1 mM dithiothreitol, […] γ^32P-ATP ([…], NEN), 11 units PKA (catalytic subunit from bovine heart, Calbiochem), and 1 μg purified GST-BAD. Reactions were incubated for 30 min at 30° C. and terminated by the addition of SDS-PAGE sample buffer. Samples were run on a 4–20% SDS-PAGE gel (Novex), transferred to a nitrocellulose membrane and phosphorylated GST-BAD was visualized by autoradiography. To verify that equal amounts of GST-BAD substrates were used, the nitrocellulose was subjected to western blot analysis with 133 ng/ml anti-BAD antibody (C-20).

Test [2] concerns BAD Ser155 phosphorylation in HeLa cells. As to the kind of experiment: BAD phosphorylation in HeLa cells (western blot band-shift / anti-phospho-Ser155 antibody). To be noted: HeLa cells. Type of test: cell-based, human. On the procedure: A mammalian expression vector encoding mutant HA-BAD S155A, derived from the shorter murine BAD of SEQ ID NO:3, was constructed. HA-BAD S155A has an amino acid sequence wherein the serine at a position corresponding to Ser155 is substituted with alanine. A western blot was performed on WCL prepared from cells expressing the shorter murine BAD (SEQ ID NO:3), HA-BAD S112A, HA-BAD S136A, or HA-BAD S155A, and probed with anti-HA antibody.
A western blot analysis, probed with anti-HA antibody, was performed on lysates produced from the Forskolin treated and untreated (control) cells to determine whether Forskolin could induce the phosphorylation BAD or mutant BAD.
HeLa cells transiently expressing HA-BAD, HA-BAD S155A, HA-BAD S112A/S136A, or HA-BAD S112A/S136A/S155A were treated with Forskolin or a buffer control.
The HA-BAD S112A/S136A double mutant was transiently expressed in HeLa cells, and transfected cell cultures were treated with each of the GPCR ligands, individually and as a group. A western blot analysis, probed with anti-HA antibody, was performed on lysates produced from the treated and untreated (negative control) cells. […] Forskolin (FK) and no treatment (−) were positive and negative controls, respectively (FIG. 6(a), […], respectively).
Non-transfected HeLa cells were treated with Forskolin or L-epinephrine, followed by western blot analysis of cell lysates using anti-BAD antibodies.
Transformants were treated with L-epinephrine, then lysed and subjected to anti-HA western blot analysis.
To further test whether phosphorylation of Ser155 is dependent on the PI 3-kinase/Akt pathway, HeLa cells were transfected with the mutant HA-BAD S155A and pretreated with Wortmannin, an inhibitor of PI 3-kinase. These cells were then stimulated with epidermal growth factor (EGF), lysed and analyzed by western blot analysis.
For immunoprecipitation of all HA-BAD species, 1 μg of the anti-HA antibody was added to the cell lysates, and incubated at 4° C. for one hour. Protein G agarose (Pierce) was then added (50 μl/fraction of 50% slurry) and followed by a one hour incubation at 4° C. Beads were washed with RIPA buffer, boiled in loading buffer (2% SDS, 10% glycerol, 5% β-ME, 60 mM Tris, pH 6.8, 0.002% Bromophenol Blue) and loaded onto polyacrylamide gels. After electrophoresis, proteins were transferred to nitrocellulose membranes, and blots blocked in western wash buffer (40 mM Tris, pH 8.0, 150 mM NaCl, 0.2% NP-40) with 5% BSA for one hour at room temperature. Blots were incubated with primary antibody diluted in western wash buffer with 3% BSA at room temperature for 1–2 hours, washed with western wash buffer and incubated with secondary HRP-coupled antibody diluted in western wash buffer with 1.5% BSA, and washed extensively. Polypeptides were detected with the ECL chemiluminescence according to the manufacturers instructions (Amersham).
Background: Immunoblotting shows a protein as a band on a membrane.

The test system of the next test is HeLa cells. As to the kind of experiment: Beta-gal ELISA apoptosis assay in transfected HeLa cells. To be noted: in the presence of Forskolin after 24 hours. The test is classed as cell-based, human. Here is the method:
Because BAD Ser155 phosphorylation, like Ser136 phosphorylation, prevents BAD from binding to Bcl-XL (FIG. 1), it was possible that by analogy, Ser155 dephosphorylation promotes cell death. To test this idea, HeLa cells were co-transfected with BAD or various BAD serine mutants and a β-gal reporter plasmid. Twenty-four hours post-transfection, cell viability was analyzed by β-gal ELISA.
To test this idea, HeLa cells were again co-transfected with BAD or various BAD serine mutants and a β-gal reporter plasmid. Forskolin was then added to half of the cultures while the other half was left untreated. Beta-gal ELISAs were performed 24 hours post transfection. […] Thus, phosphorylation of Ser155 rescues cells from BAD-induced apoptosis, while substitution of Ser155 with a nonphosphorylatable residue results in increased cell death and the failure of cells to be protected from induced PKA activity.
Beta-gal ELISA assays were performed using the β-gal ELISA system from Boehringer Mannheim, according to manufacture's instructions. Cells were transfected with BAD (or BAD mutant) and β-gal in a ratio of 5:1. The transfected cells were trypsinized and distributed into 96-well tissue culture plates. Twenty-four hours after transfection, cell extracts were obtained by lysing the cells in lysis buffer. Cell extracts (200 μl) were then added to anti-β-gal-coated microtiter plates (MTP). The MTPs were foil-covered and incubated for one hour at 37° C. Solutions were then decanted and the MTPs were washed, followed by the addition of 200 μl of anti-β-gal-DIG working solution, and incubation for an additional hour as described above. Solutions were again decanted, the MTPs washed and 200 μl of DIG-POD working solution were added. The MTPs were incubated for another hour at 37° C., the solution decanted, and the wells washed. 200 μl of substrate with enhancer were added to each well and incubated at room temperature until color development. The β-gal activity was measured by the absorbance of the sample at […]. Data were based on triplicate wells with standard deviations calculated.
A general note: ELISA stands for enzyme-linked immunosorbent assay.

Sequence of GST-Bcl-XL (Q07817 whole entry): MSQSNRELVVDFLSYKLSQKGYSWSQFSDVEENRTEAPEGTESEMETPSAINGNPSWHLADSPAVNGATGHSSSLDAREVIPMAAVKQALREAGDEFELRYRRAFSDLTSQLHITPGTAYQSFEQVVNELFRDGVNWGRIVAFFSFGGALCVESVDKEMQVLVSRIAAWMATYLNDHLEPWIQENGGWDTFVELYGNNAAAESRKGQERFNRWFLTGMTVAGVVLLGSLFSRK

B1: wild-type BAD: shorter murine BAD of SEQ ID NO:3 (162 aa), used untagged, HA-tagged or GST-tagged (protein, listed as Mus musculus)
chain: MFQIPEFEPSEQEDASATDRGLGPSLTEDQPGPYLAPGLLGSNIHQQGRAATNSHHGGAGAMETRSRHSSYPAGTEEDEGMEEELSPFRGRSRSAPPNLWAAQRYGRELRRMSDEFEGSFKGLPRPKSAGTATQMRQSAGWTRIIQSWWDRNLGKGGSTPSQ
modifications: optional HA or GST tag
For the molecule B1, in the test with GST-Bcl-XL, the “binding to GST-Bcl-XL after phosphorylation by PKA” value is recorded as “blocked the ability of BAD to bind to Bcl-XL”. In addition, the “gel-mobility shift induced by phosphorylation by PKA” value in test [1] is “induced a gel-mobility shift”. In test [2], the “band-shift (phosphorylation) of expressed BAD construct in response to L-epinephrine” value is “significant band-shift”. For the same molecule, the “more cells surviving transient expression than with the BAD S155A mutant” value in the test with HeLa cells was “Approximately 50%”.
